Experimental data published in patent US6884600 (MEDICAL RESEARCH COUNCIL LONDON, dated 2005).

Key:
[1] = molecular target: T1, β isoform of PP1c released from rabbit skeletal muscle PP1G (rabbit, UniProt P62143 2-327); experiment: phosphatase assays and changed crystal form of PP1c
T1 construct: mature; also called PP1 catalytic subunit

[2] = molecular target: T2, myosin from chicken gizzard, dephosphorylated form (chicken, UniProt P10587 2-1979; P02612 2-172; P02607 2-151); experiment: co-sedimentation with myosin, immunoblot
T2 construct: mature; Native protein pelleted by centrifugation; 1 µM in terms of heavy chains; also called myosin dimer
T2 sequence (P10587 2-1979, chain 1 of 3): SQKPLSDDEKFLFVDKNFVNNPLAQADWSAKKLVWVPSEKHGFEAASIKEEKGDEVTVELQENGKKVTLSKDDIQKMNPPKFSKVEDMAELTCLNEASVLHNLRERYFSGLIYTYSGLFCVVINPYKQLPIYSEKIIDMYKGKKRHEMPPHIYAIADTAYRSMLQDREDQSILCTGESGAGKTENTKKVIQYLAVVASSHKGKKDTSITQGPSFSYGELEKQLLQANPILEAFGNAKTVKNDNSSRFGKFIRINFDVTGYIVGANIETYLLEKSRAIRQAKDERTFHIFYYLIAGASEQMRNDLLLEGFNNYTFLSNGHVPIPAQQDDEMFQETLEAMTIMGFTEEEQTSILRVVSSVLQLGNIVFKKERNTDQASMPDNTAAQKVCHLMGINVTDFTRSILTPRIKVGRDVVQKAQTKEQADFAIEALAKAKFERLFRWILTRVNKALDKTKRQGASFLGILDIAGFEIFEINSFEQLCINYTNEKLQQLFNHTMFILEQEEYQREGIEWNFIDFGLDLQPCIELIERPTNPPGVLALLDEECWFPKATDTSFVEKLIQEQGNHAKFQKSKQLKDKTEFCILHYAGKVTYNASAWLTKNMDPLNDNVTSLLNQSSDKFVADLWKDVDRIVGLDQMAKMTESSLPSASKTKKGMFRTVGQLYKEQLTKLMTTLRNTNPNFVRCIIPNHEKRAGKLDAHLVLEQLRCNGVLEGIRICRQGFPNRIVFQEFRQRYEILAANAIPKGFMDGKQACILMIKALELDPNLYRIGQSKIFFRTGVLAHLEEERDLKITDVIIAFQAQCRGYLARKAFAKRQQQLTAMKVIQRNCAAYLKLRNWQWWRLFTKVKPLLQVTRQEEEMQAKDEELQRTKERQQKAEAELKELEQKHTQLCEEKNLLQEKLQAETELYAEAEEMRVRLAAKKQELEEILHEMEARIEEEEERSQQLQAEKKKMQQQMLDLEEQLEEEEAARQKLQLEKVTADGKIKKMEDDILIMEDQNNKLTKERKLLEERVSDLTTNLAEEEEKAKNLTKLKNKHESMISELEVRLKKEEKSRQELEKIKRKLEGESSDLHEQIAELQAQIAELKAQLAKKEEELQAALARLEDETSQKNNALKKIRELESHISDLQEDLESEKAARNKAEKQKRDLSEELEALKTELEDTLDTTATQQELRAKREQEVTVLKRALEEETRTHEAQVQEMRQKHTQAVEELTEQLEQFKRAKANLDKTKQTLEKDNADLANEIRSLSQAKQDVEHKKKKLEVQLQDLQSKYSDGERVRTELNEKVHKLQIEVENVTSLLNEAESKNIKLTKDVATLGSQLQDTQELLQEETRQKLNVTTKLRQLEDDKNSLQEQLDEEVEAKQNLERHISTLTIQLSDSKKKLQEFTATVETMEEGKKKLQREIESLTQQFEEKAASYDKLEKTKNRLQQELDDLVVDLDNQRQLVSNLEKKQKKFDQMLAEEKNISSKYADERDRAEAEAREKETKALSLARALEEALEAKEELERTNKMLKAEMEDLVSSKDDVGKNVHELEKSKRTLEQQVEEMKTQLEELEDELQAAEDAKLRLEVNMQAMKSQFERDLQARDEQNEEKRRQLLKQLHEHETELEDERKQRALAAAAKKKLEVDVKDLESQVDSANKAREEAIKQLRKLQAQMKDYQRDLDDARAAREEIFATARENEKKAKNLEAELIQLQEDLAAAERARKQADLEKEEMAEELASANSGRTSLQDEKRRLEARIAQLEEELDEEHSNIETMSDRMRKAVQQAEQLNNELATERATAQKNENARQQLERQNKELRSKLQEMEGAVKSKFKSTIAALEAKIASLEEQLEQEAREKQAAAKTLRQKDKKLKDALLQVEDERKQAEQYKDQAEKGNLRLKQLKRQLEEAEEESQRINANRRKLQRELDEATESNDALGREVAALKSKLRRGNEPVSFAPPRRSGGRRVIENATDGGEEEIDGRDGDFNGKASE
T2 sequence (P02612 2-172, chain 2 of 3): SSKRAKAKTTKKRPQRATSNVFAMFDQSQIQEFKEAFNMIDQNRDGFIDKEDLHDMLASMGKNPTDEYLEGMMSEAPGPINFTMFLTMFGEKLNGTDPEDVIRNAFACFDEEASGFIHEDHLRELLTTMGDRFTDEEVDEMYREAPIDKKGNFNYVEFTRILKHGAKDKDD
T2 sequence (P02607 2-151, chain 3 of 3): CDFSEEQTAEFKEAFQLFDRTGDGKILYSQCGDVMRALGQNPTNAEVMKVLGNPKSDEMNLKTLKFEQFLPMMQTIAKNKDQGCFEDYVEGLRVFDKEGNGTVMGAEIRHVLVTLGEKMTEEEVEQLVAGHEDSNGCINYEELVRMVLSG
Protocol: (§1) (A); PP1_M, $M110$-(M1-S477) and GST-$M110$-(M377-K976), each at 30 nM were incubated for 15 min at 0° C. with 1 μM myosin and centrifuged. The supernatants (S), resuspended pellets (P) and the suspension before centrifugation (T, total) were electrophoresed on 12% SDS/polyacrylamide gels, transferred to nitrocellulose and immunoblotted with antibodies raised against the PP1_M holoenzyme. No protein was pelleted in the absence of myosin (not shown). The positions of the marker proteins myosin heavy chain (200 kDa), glycogen phosphorylase (97 kDa), bovine serum albumin (66 kDa), ovalbumin (43 kDa), carbonic anhydrase (29 kDa) and soybean trypsin inhibitor (20 kDa) are indicated. […] A small amount of $M110$-(R714-I1004) pelleted in the absence of myosin. […] No other protein was pelleted in the absence of myosin.
(§2) Myosin binding assays. Myosin (0.5 mg/ml, 1 µM in terms of myosin heavy chains) in 10 mM Hepes pH 7.5, 50 mM KCl, 5 mM MgCl2, 0.1% (by vol) 2-mercaptoethanol, was mixed with PP1_M, M$21$ subunit, or fragments of the M$110$ and M$21$ subunits, at the concentrations indicated in figure legends. After incubation for 15 min at 0° C., the solutions were centrifuged for 2 min at 13,000×g, the supernatants removed, and the pellets washed twice in 10 mM Hepes pH 7.5, 50 mM KCl, 5 mM MgCl2, 0.1% (by vol) 2-mercaptoethanol before resuspension in 50 mM Tris-HCl pH 7.5, 0.1 mM EGTA, 0.03% (by mass) Brij 35, 0.6 M NaCl, 0.1% (by vol) 2-mercaptoethanol. Aliquots of the supernatant, the resuspended pellet and the suspension before centrifugation were either assayed for myosin P-light chain phosphatase activity or denatured in SDS and analysed by SDS/polyacrylamide gel electrophoresis.

[3] = molecular target: T2, myosin from chicken gizzard, …; experiment: summary of the co-sedimentation experiments
Protocol: as §1
(§3) Myosin binding assays. Myosin (0.5 mg/ml, 1 µM in terms of myosin heavy chains) in 10 mM Hepes pH 7.5, 50 mM KCl, 5 mM MgCl2, 0.1% (by vol) 2-mercaptoethanol, was mixed with PP1_M, M$21$ subunit, or fragments of the M$110$ and M$21$ subunits, at the concentrations indicated in figure legends. […] Aliquots of the supernatant, the resuspended pellet and the suspension before centrifugation were either assayed for myosin P-light chain phosphatase activity or denatured in SDS and analysed by SDS/polyacrylamide gel electrophoresis.

[4] = molecular target: T2, myosin from chicken gizzard, …; experiment: co-sedimentation with myosin
[5] = molecular target: T1, β isoform of PP1c released from rabbit …; experiment: cell-based or functional assay
[6] = molecular target: T2, myosin from chicken gizzard, …; experiment: co-sedimentation with myosin (as PP1M lacking M21)
Protocol: The PP1 catalytic subunit (PP1c), PP1_M, or PP1_M lacking the $M21$ subunit, $PP1_M(\Delta M21)$, each at 30 nM, were incubated for 15 min at 0° C. with 1 μM myosin and centrifuged (see Methods of Example 3). […] The results shown are the average (±S.E.M.) for three separate experiments each assayed in duplicate.
as §2

[7] = molecular target: PP1GL, glycogen-associated form of PP1 in rat hepatic glycogen-protein particles (rat); experiment: cell-based or functional assay
[8] = molecular target: PP1M, myosin-associated form of PP1 from chicken gizzard (chicken, UniProt P62207 2-327); experiment: cell-based or functional assay
Sequence of PP1M, myosin-associated form of PP1 from chicken gizzard (P62207 2-327): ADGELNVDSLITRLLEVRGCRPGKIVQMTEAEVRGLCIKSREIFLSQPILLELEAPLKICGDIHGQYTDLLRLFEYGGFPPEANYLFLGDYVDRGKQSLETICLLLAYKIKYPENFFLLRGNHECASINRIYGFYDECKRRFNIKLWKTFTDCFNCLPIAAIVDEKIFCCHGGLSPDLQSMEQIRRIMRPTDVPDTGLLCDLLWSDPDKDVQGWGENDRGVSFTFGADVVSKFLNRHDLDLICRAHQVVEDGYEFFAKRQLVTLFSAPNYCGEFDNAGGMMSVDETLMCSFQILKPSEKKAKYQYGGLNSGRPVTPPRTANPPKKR

[9] = molecular target: T2, myosin from chicken gizzard, …; experiment: co-sedimentation, 30 nM with 1 µM myosin, immunoblot
Protocol: as §1, §3

T1 sequence (P62143 2-327): as the sequence (P62207 2-327) above

GRRVSFADNFGFNLVSVK (also called peptide 63-80 of GM) [GM-(G63-K80) synthetic peptide]: binds [1].

B1: M110-(M1-S477), released from GST with thrombin (other)
chain: GSPGMKMADAKQKRNEQLKRWIGSETDLEPPVVKRQKTKVKFDDGAVFLAACSSGDTDEVLKLLHRGADINYANVDGLTALHQACIDDNVDMVKFLVENGANINQPDNEGWIPLHAAASCGYLDIAEFLIGQGAHVGAVNSEGDTPLDIAEEEAMEELLQNEVNRQGVDIEAARKEEERIMLRDARQWLNSGHISDVRHAKSGGTALHVAAAKGYTEVLKLLIQAGYDVNIKDYDGWTPLHAAAHWGKEEACRILVDNLCDMETVNKVGQTAFDVADEDILGYLEELQKKQNLLHSEKRDKKSPLIESTANMENNQPQKTFKNKETLIIEPEKNASRIESLEQEKADEEEEGKKDESSCSSEEDEEDDSESEAETDKTKPMASVTNAHTASTQAAPAAVTTPTLSSNQGTPTSPVKKFPTSTTKISPKEEERKDESPASWRLGLRKTGSYGALAEITASKEAQKEKDTAGVIRSASSPRLSSAANSISSLIHRD
B1: no binding (tested: 30 nM with 1 µM myosin) [2].

B2: GST-M21 (other, not shown: a dimerising Fc or GST; small tags and cut ends)
chain: MSSLFTRSKEYTRSRKSQSDSPPSSPSPIAKTLRHERLSRLEAATTPATSDSYSDRASSRSSAYSRRENRLAALSSRAEEESNRDYKKLYESALSENQKLKSKLQEAQLELADIKSKLEKAAQQKHEKTSDRSSMLEMEKREKRALERKLSEMEEEMKILTELKSDNQRLKDENGALIRVISKLSK
notes: also called undegraded GST-M21 (47 kDa)
B2: binds [2].

B3: M110-(R714-I1004), C-terminal 291 residues of the chicken gizzard M110 subunit (other)
chain: RSTRTREQENEEKEKEEKEKQDKEKQEEKKESETKDDDYRQRYSRTVEEPYHRYRPTSTSTSTSSTSSLSTSTSSLSSSSQLNRPNSLIGITSAYSRSGTKESEREGGKKEEEKEEDKSQPKSIRERRRPREKRRSTGVSFWTQDSDENEQEHQSDSEEGTNKKETQSDSLSRYDTGSLSVSSGDRYDSAQGRSGSQSYLEDRKPYCSRLEKEDSTDFKKLYEQILAENEKLKAQLHDTNMELTDLKLQLEKTTQRQERFADRSLLEMEKRVSGKSQYLLGGKKSSRKKDI
notes: Expressed from pT7-7
B3: binds [3].

B4: GM-(G63-N75) synthetic peptide (peptide)
peptide: GRRVSFADNFGFN
notes: 13-residue peptide co-crystallised with PP1γ1; also called GM[63-75]; GM peptide
B4: binds [1].

B5: GST-M110-(M1-S477) (other)
chain: MKMADAKQKRNEQLKRWIGSETDLEPPVVKRQKTKVKFDDGAVFLAACSSGDTDEVLKLLHRGADINYANVDGLTALHQACIDDNVDMVKFLVENGANINQPDNEGWIPLHAAASCGYLDIAEFLIGQGAHVGAVNSEGDTPLDIAEEEAMEELLQNEVNRQGVDIEAARKEEERIMLRDARQWLNSGHISDVRHAKSGGTALHVAAAKGYTEVLKLLIQAGYDVNIKDYDGWTPLHAAAHWGKEEACRILVDNLCDMETVNKVGQTAFDVADEDILGYLEELQKKQNLLHSEKRDKKSPLIESTANMENNQPQKTFKNKETLIIEPEKNASRIESLEQEKADEEEEGKKDESSCSSEEDEEDDSESEAETDKTKPMASVTNAHTASTQAAPAAVTTPTLSSNQGTPTSPVKKFPTSTTKISPKEEERKDESPASWRLGLRKTGSYGALAEITASKEAQKEKDTAGVIRSASSPRLSSAANSISSLIHRD
notes: not shown: glutathione-S-transferase of vector pGEX-KG with the vector linker (thrombin site)
B5: no binding [4].

B6: M110-(K933-I1004), C-terminal 72 residues of the chicken gizzard M110 subunit, released from MBP with Factor Xa (other)
chain: KLYEQILAENEKLKAQLHDTNMELTDLKLQLEKTTQRQERFADRSLLEMEKRVSGKSQYLLGGKKSSRKKDI
notes: also called 8.5 kDa M110-(K933-I1004) fragment
B6: no binding (tested: 100 nM with 1 µM myosin) [2].

B7: M110-(M1-A150), released from GST with thrombin (other)
chain: GSPGMKMADAKQKRNEQLKRWIGSETDLEPPVVKRQKTKVKFDDGAVFLAACSSGDTDEVLKLLHRGADINYANVDGLTALHQACIDDNVDMVKFLVENGANINQPDNEGWIPLHAAASCGYLDIAEFLIGQGAHVGAVNSEGDTPLDIAEEEA
In the case of B7, the “concentration needed to modify the specificity of PP1, relative to M110-(M1-E309)” value [5] is reported as 10 fold.

B8: M110 subunit of chicken gizzard PP1M, full length (other)
chain: MKMADAKQKRNEQLKRWIGSETDLEPPVVKRKKTKVKFDDGAVFLAACSSGDTEEVLRLLERGADINYANVDGLTALHQACIDDNVDMVKFLVENGANINQPDNEGWIPLHAAASCGYLDIAEYLISQGAHVGAVNSEGDTPLDIAEEEAMEELLQNEVNRQGVDIEAARKEEERIMLRDARQWLNSGHINDVRHAKSGGTALHVAAAKGYTEVLKLLIQARYDVNIKDYDGWTPLHAAAHWGKEEACRILVENLCDMEAVNKVGQTAFDVADEDILGYLEELQKKQNLLHSEKREKKSPLIESTANLDNNQTQKTFKNKETLIMEQEKNASSIESLEHEKADEEEEGKKDESSCSSEEEEDDDSESEAETDKAKTLANANTTSTQSASMTAPSVAGGQGTPTSPLKKFPTSTTKVSPKEEERKDESPASWRLGLRKTGSYGALAEITASKEAQKEKDSAGVIRSASSPRLSSSLDNKEKEKDGKGTRLAYVAPTIPRRLASTSDIDEKENRDSSASSIRSGSSYARRKWEEDVKKNSLNEGPTSLNTSYQRSGSFGRRQDDLVSSNVPSTASTVTSSAGLQKTLPASANTTTKSTTGSTSAGVQSSTSNRLWAEDSTEKEKDSVPTAVTVPVAPSVVNAAATTTAMTTATSGTVSSTSEVRERRRSYLTPVRDEESESQRKARSRQARQSRRSTQGVTLTDLQEAEKTIGRSRSTRTREQENEEKEKEEKEKQDKEKQEEKKESETKDDDYRQRYSRTVEEPYHRYRPTSTSTSTSSTSSLSTSTSSLSSSSQLNRPNSLIGITSAYSRSGTKESEREGGKKEEEKEEDKSQPKSIRERRRPREKRRSTGVSFWTQDSDENEQEHQSDSEEGTNKKETQSDSLSRYDTGSLSVSSGDRYDSAQGRSGSQSYLEDRKPYCSRLEKEDSTDFKKLYEQILAENEKLKAQLHDTNMELTDLKLQLEKTTQRQERFADRSLLEMEKRVSGKSQYLLGGKKSSRKKDI
notes: Native subunit, met as the M110 band of blotted PP1M or inside PP1M; also called 110 kDa subunit; Ch1
B8: binds [6].

For GRRVSFADNFGFNLVSVKEFDTWELPSVSTT [rabbit GM-(G63-T93) synthetic peptide], the “phosphorylase phosphatase activity of PP1GL” value [7] was 6 fold and the “phosphorylase phosphatase activity of PP1M at 10 µM peptide” value [8] was ~7 fold.

MKMADAKQKRNEQLKRWIGSETDLEPPVVKRQKTK [M110[M1-K35] synthetic peptide] was tested, and the “effectiveness at activating the myosin light chain phosphatase activity of PP1c relative to M110[1-38]” value [5] was ≥ 10000 fold.

In the case of MKMADAKQKRNEQLKRWIGSETDLEPPVVKRQKTKVKF [M110-(M1-F38) synthetic peptide], the “phosphorylase phosphatase activity of PP1GL at 10 µM peptide” value [7] is reported as 3.5 fold, the “concentration for half maximal activation relative to M110-(M1-E309)” value [5] is reported as ≥ 100 fold and the “maximal activation of the myosin light chain phosphatase activity of PP1c” value [5] is reported as 3 fold.

B9: GST-M110-(M1-E309), GST tag not cleaved (other)
chain: MKMADAKQKRNEQLKRWIGSETDLEPPVVKRQKTKVKFDDGAVFLAACSSGDTDEVLKLLHRGADINYANVDGLTALHQACIDDNVDMVKFLVENGANINQPDNEGWIPLHAAASCGYLDIAEFLIGQGAHVGAVNSEGDTPLDIAEEEAMEELLQNEVNRQGVDIEAARKEEERIMLRDARQWLNSGHISDVRHAKSGGTALHVAAAKGYTEVLKLLIQAGYDVNIKDYDGWTPLHAAAHWGKEEACRILVDNLCDMETVNKVGQTAFDVADEDILGYLEELQKKQNLLHSEKRDKKSPLIESTANMEA
notes: as for B5
B9: no binding [4].

B10: GST-M110-(M377-K976), undegraded (other)
chain: MASVTNAHTASTQAAPAAVTTPTLSSNQGTPTSPVKKFPTSTTKISPKEEERKDESPASWRLGLRKTGSYGALAEITASKEAQKEKDTAGVIRSASSPRLSSSLDNKEKEKDNKGTRLAYVAPTIPRRLGSTSDIEEKENRESSNLRTSSSYTRRKWEDDLKKNSSINEGSTYHRSTSNRLWAEDSTEKEKDSAPTAATILVAPTVVSAAASSTTALTTTTAGTLSSTSEVRERRRSYLTPVRDEESESQRKARSRQARQSRRSTQGVTLTDLQEAEKTIGRSRSTRTREQENEEKDKEEKEKQDKEKQEEKKESEVSREDEYKQKYSRTYDETYARYRPVSTSSSSTPSSSSLSTLGSSLYASSQLNRPNSLVGITSAYSRGLTKDNEREGEKKEEEKEGEDKSQPKSIRERRRPREKRRSTGVSFWTQDSDENEQERQSDTEDGSSKRDTQTDSVSRYDSSSTSSSDRYDSLLGRSASYSYLEERKPYGSRLEKDDSTDFKKLYEQILAENEKLKAQLHDTNMELTDLKLQLEKATQRQERFADRSLLEMEKRERRALERRISEMEEELKMLPDLKADNQRLKDENGALIRVISKLSK
notes: also called C-terminal 600 residues of the M110 subunit from rat aorta; not shown: glutathione-S-transferase of vector pGEX-KG with the vector linker
B10: binds [9].
